Assay: FRET response of LuxP BAI-2 binding site mutant biosensors to BAI-2
Experimental: Site-directed mutations were carried out using the QuikChange mutagenesis kit (Stratagene). The perGFP plasmid containing the gene encoding the green fluorescent protein (GFP) is used for creating cyan and yellow variants CFP and YFP, respectively. An L221K mutation is introduced into the gene encoding CFP or YFP to reduce the possible level of intermolecular dimerization. Cloning vector pSP72 (Promega) is used for creating 5′ to 3′ end-to-end gene fusions of PCR fragments containing the genes encoding CFP (5′ KpnI/3′ EagI), V. harveyi LuxP (70 to 1095 bp; 5′ EagI/3′ NotI), and YFP (5′ NotI/3′ PstI), generating plasmid pSP72-CLPY. The CLPY gene fusion is removed using the restriction enzymes KpnI and PstI and subcloned into a pQE-30 bacterial expression vector (Qiagen) containing an N-terminal six-His tag, generating plasmid pQE30-CLPY. LuxP BAI-2 binding site mutants pQE30-M2CLPY (Q77A and S79A) and pQE30-M3CLPY (Q77A, S79A, and W82F) are created using pQE30-CLPY as a template and confirmed by DNA sequence analysis.
The YFP or CFP fluorescence response of wild-type and mutant forms of CLPY (1.0 mL, 0.015 mg/mL) to different ligands is measured 5 minutes after addition of the ligand to the protein at room temperature. No time-dependent changes in the CLPY FRET ratio are observed after incubation for 5 minutes. […]

B1: M3CLPY: CLPY with LuxP BAI-2 binding site mutations Q77A, S79A, and W82F (protein)
chain: MRGSHHHHHHGSACELGTMKGEELFTGVVPILVELDGDVNGHKFSVSGEGEGDATYGKLTLKFICTTGKLPVPWPTLVTTLTWGVQCFSRYPDHMKQHDFFKSAMPEGYVQQRTIFFKDDGNYKTRAEVKFEGDTLVNRIELKGIDFKEDGNILGHKLEYNYISHNVYITADKQKNGIKANFKIRHNIEDGSVQLADHYQQNTPIGDGPVLLPDNHYLSIQSALSKDPNEKRDHMVLKEFVTAAGITHGMDELYTADGVLNGYWGYQEFLDEFPEQRNLTNALSEAVRAQPVPLSKPTQRPIKISVVYPGQAVADYFVRNIASFEKRLYKLNINYQLNQVFTRPNADIKQQSLSLMEALKSKSDYLIFTLDTTRHRKFVEHVLDSTNTKLILQNITTPVREWDKHQPFLYVGFDHAEGSRELATEFGKFFPKHTYYSVLYFSEGYISDVRGDTFIHQVNRDNNFELQSAYYTKATKQSGYDAAKASLAKHPDVDFIYACSTDVALGAVDALAELGREDIMINGWGGGSAELDAIQKGALDITVMRMNDDTGIAMAEAIKWDLEDKPVPTVYSGDFEIVTKADSPERIEALKKRAFRYSDNGGAAAKGEELFTGVVPILVELDGDVNGHKFSVSGEGEGDATYGKLTLYFICTTGKLPVPWPTLVTTLGYGLKCFARYPDHMKQHDFFKSAMPEGYVQERTIFFKDDGNYKTRAEVKFEGDTLVNRIELKGIDFKEDGNILGHKLEYNYNSHNVYIMADKQKNGIKVNFKIRHNIEDGSVQLADHYQQNTPIGDGPVLLPDNHYLSYQSALSKDPNEKRDHMVLKEFVTAAGITHGMDELYK
**Q.** With B1 as the molecule, how does the “FRET response to BAI-2 (qualitative)” value (following addition of BAI-2, compared to wild-type CLPY) read?
**A.** insensitive to BAI-2

**Q.** And the “FRET response relative to the wild-type biosensor” value (supersaturating BAI-2 (10 μM))?
**A.** 18%
